Experimental data published in the Human Domainome abundance scans (Beltran et al. 2025).
± gives the uncertainty stated by the source.

Test: abundance fitness (aPCA) (normalised: wild type 0, dead -1); higher = more abundant; growth selection in yeast, the domain comes from the species named
Details: Homo sapiens

Substance	abundance fitness
Lipoamide acyltransferase component of branched-chain alpha-keto acid dehydrogenase complex, mitochondrial E203C, P11182	-0.053 ± 0.075
Lipoamide acyltransferase component of branched-chain alpha-keto acid dehydrogenase complex, mitochondrial E203D, P11182	-0.089 ± 0.059
Lipoamide acyltransferase component of branched-chain alpha-keto acid dehydrogenase complex, mitochondrial E203F, P11182	-0.409 ± 0.14
Lipoamide acyltransferase component of branched-chain alpha-keto acid dehydrogenase complex, mitochondrial E203G, P11182	-0.089 ± 0.04
Lipoamide acyltransferase component of branched-chain alpha-keto acid dehydrogenase complex, mitochondrial E203H, P11182	-0.124 ± 0.059
Lipoamide acyltransferase component of branched-chain alpha-keto acid dehydrogenase complex, mitochondrial E203K, P11182	-0.027 ± 0.055
Lipoamide acyltransferase component of branched-chain alpha-keto acid dehydrogenase complex, mitochondrial E203L, P11182	-0.176 ± 0.049
Lipoamide acyltransferase component of branched-chain alpha-keto acid dehydrogenase complex, mitochondrial E203M, P11182	-0.127 ± 0.06
Lipoamide acyltransferase component of branched-chain alpha-keto acid dehydrogenase complex, mitochondrial E203P, P11182	-0.173 ± 0.059
Lipoamide acyltransferase component of branched-chain alpha-keto acid dehydrogenase complex, mitochondrial E203Q, P11182	-0.104 ± 0.058
Lipoamide acyltransferase component of branched-chain alpha-keto acid dehydrogenase complex, mitochondrial E203R, P11182	0.024 ± 0.037
Lipoamide acyltransferase component of branched-chain alpha-keto acid dehydrogenase complex, mitochondrial E203S, P11182	-0.007 ± 0.067
Lipoamide acyltransferase component of branched-chain alpha-keto acid dehydrogenase complex, mitochondrial E203T, P11182	-0.109 ± 0.087
Lipoamide acyltransferase component of branched-chain alpha-keto acid dehydrogenase complex, mitochondrial E203V, P11182	-0.08 ± 0.042
Lipoamide acyltransferase component of branched-chain alpha-keto acid dehydrogenase complex, mitochondrial E210A, P11182	0.021 ± 0.038
Lipoamide acyltransferase component of branched-chain alpha-keto acid dehydrogenase complex, mitochondrial E210C, P11182	-0.048 ± 0.053
Lipoamide acyltransferase component of branched-chain alpha-keto acid dehydrogenase complex, mitochondrial E210D, P11182	-0.006 ± 0.058
Lipoamide acyltransferase component of branched-chain alpha-keto acid dehydrogenase complex, mitochondrial E210F, P11182	-0.24 ± 0.066
Lipoamide acyltransferase component of branched-chain alpha-keto acid dehydrogenase complex, mitochondrial E210H, P11182	-0.319 ± 0.15
Lipoamide acyltransferase component of branched-chain alpha-keto acid dehydrogenase complex, mitochondrial E210I, P11182	-0.239 ± 0.055
Lipoamide acyltransferase component of branched-chain alpha-keto acid dehydrogenase complex, mitochondrial E210K, P11182	0.034 ± 0.072
Lipoamide acyltransferase component of branched-chain alpha-keto acid dehydrogenase complex, mitochondrial E210L, P11182	-0.133 ± 0.041
Lipoamide acyltransferase component of branched-chain alpha-keto acid dehydrogenase complex, mitochondrial E210M, P11182	-0.109 ± 0.044
Lipoamide acyltransferase component of branched-chain alpha-keto acid dehydrogenase complex, mitochondrial E210N, P11182	-0.061 ± 0.08

Substance	abundance fitness
Lipoamide acyltransferase component of branched-chain alpha-keto acid dehydrogenase complex, mitochondrial E210P, P11182	-0.081 ± 0.056
Lipoamide acyltransferase component of branched-chain alpha-keto acid dehydrogenase complex, mitochondrial E210Q, P11182	-0.042 ± 0.053
Lipoamide acyltransferase component of branched-chain alpha-keto acid dehydrogenase complex, mitochondrial E210R, P11182	0.008 ± 0.039
Lipoamide acyltransferase component of branched-chain alpha-keto acid dehydrogenase complex, mitochondrial E210S, P11182	-0.019 ± 0.042
Lipoamide acyltransferase component of branched-chain alpha-keto acid dehydrogenase complex, mitochondrial E210T, P11182	-0.041 ± 0.056
Lipoamide acyltransferase component of branched-chain alpha-keto acid dehydrogenase complex, mitochondrial G193A, P11182	-0.199 ± 0.039
Lipoamide acyltransferase component of branched-chain alpha-keto acid dehydrogenase complex, mitochondrial G193C, P11182	-0.647 ± 0.059
Lipoamide acyltransferase component of branched-chain alpha-keto acid dehydrogenase complex, mitochondrial G193D, P11182	-0.773 ± 0.088
Lipoamide acyltransferase component of branched-chain alpha-keto acid dehydrogenase complex, mitochondrial G193E, P11182	-0.706 ± 0.067
Lipoamide acyltransferase component of branched-chain alpha-keto acid dehydrogenase complex, mitochondrial G193H, P11182	-0.908 ± 0.2
Lipoamide acyltransferase component of branched-chain alpha-keto acid dehydrogenase complex, mitochondrial G193I, P11182	-0.951 ± 0.12
Lipoamide acyltransferase component of branched-chain alpha-keto acid dehydrogenase complex, mitochondrial G193K, P11182	-0.732 ± 0.057
Lipoamide acyltransferase component of branched-chain alpha-keto acid dehydrogenase complex, mitochondrial G193L, P11182	-0.863 ± 0.061
Lipoamide acyltransferase component of branched-chain alpha-keto acid dehydrogenase complex, mitochondrial G193M, P11182	-0.694 ± 0.073
Lipoamide acyltransferase component of branched-chain alpha-keto acid dehydrogenase complex, mitochondrial G193P, P11182	-0.08 ± 0.051
Lipoamide acyltransferase component of branched-chain alpha-keto acid dehydrogenase complex, mitochondrial G193Q, P11182	-0.573 ± 0.061
Lipoamide acyltransferase component of branched-chain alpha-keto acid dehydrogenase complex, mitochondrial G193R, P11182	-0.692 ± 0.04
Lipoamide acyltransferase component of branched-chain alpha-keto acid dehydrogenase complex, mitochondrial G193S, P11182	-0.308 ± 0.056
Lipoamide acyltransferase component of branched-chain alpha-keto acid dehydrogenase complex, mitochondrial G193T, P11182	-0.476 ± 0.047
Lipoamide acyltransferase component of branched-chain alpha-keto acid dehydrogenase complex, mitochondrial G193V, P11182	-0.814 ± 0.05
Lipoamide acyltransferase component of branched-chain alpha-keto acid dehydrogenase complex, mitochondrial G193W, P11182	-1.06 ± 0.18
Lipoamide acyltransferase component of branched-chain alpha-keto acid dehydrogenase complex, mitochondrial G193Y, P11182	-1.02 ± 0.26
Lipoamide acyltransferase component of branched-chain alpha-keto acid dehydrogenase complex, mitochondrial G195A, P11182	-0.464 ± 0.044
Lipoamide acyltransferase component of branched-chain alpha-keto acid dehydrogenase complex, mitochondrial G195D, P11182	-0.516 ± 0.12
